Source: paper PMC4454200 (2015)

Biological target: Myosin-5a (Mus musculus, UniProt Q99104)
Experiment: ATPase activity assay

Sequence of Myosin-5a (Q99104 2-1853): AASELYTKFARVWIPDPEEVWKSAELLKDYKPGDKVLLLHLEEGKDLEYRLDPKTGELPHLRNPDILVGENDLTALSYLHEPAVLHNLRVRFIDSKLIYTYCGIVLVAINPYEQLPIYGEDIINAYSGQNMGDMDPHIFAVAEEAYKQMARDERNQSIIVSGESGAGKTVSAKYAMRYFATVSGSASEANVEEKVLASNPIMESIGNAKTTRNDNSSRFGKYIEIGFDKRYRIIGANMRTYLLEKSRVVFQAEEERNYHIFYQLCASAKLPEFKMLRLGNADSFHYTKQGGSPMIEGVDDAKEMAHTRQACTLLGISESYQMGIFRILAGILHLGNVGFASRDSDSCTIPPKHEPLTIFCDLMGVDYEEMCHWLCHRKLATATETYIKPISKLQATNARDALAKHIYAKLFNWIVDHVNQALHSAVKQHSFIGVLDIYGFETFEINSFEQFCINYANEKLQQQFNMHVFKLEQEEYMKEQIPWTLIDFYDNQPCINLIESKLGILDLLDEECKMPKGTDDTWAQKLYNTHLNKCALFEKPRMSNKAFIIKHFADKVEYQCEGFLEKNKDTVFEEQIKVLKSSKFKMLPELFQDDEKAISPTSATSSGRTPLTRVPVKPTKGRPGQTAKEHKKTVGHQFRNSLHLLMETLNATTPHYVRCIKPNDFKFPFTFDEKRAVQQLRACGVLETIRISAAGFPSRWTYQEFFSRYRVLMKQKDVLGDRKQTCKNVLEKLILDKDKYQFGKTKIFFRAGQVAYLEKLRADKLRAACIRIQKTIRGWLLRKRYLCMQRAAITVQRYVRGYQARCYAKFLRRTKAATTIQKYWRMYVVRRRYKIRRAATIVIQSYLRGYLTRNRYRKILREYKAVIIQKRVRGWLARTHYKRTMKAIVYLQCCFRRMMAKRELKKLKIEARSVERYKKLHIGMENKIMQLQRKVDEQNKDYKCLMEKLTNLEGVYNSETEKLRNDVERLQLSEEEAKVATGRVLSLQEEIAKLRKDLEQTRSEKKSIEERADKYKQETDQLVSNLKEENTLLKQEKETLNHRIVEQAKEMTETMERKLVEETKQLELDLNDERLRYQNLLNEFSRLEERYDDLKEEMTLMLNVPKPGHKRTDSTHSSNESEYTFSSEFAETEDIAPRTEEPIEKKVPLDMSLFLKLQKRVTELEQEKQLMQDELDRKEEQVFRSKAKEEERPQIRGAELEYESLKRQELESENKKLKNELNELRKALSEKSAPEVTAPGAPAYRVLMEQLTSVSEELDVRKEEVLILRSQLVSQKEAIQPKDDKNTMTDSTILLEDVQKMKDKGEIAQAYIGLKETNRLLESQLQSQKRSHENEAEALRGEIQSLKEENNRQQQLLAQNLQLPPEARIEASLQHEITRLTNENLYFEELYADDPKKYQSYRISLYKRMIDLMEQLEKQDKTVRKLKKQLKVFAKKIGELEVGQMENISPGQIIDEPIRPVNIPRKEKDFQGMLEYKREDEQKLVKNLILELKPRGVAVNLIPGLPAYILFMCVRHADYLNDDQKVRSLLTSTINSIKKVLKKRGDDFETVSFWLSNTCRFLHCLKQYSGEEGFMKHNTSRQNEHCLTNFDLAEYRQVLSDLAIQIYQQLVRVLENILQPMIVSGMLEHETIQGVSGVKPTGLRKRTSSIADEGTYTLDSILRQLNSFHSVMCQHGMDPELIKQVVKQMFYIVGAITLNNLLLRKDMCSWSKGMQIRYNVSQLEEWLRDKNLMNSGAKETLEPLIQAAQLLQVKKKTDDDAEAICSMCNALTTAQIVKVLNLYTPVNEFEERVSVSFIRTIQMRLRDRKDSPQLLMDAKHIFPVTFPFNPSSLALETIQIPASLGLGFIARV

Kd: 19.8 µM
Binder: RDQPLNSKKKKRLLSFRDVDFEEDSD [Melanophilin GTBDP]
